According to patent US20240132593A1 (KINETA, published 2024):
Where “and” joins values, the source holds several entries; their conditions need not be identical. Identical values can stand only once.

Experiments:
[1] = target: T1, His-tagged recombinant human VISTA-ECD (Met 1 to Ala 194) (human, UniProt Q9H7M9 33-194); test: ELISA, His-tagged human VISTA ECD on plate, mAb titrated
T1 construct: also called hu.VISTA; VISTA-His; not shown: His tag

[2] = target: T1, His-tagged recombinant human VISTA-ECD …; test: BLI Octet, reversed format (avidity): hu VISTA-ECD-His on HIS1K sensor, mAb 133.3 nM
[3] = target: T2, His-tagged recombinant mouse VISTA-ECD (Met 1 to Ala 194) (mouse, UniProt Q9D659 33-194); test: ELISA endpoint, His-VISTA on plate, mAb at 23 µg/mL
T2 construct: Bought (Sino Biological); not shown: His tag
T2 sequence: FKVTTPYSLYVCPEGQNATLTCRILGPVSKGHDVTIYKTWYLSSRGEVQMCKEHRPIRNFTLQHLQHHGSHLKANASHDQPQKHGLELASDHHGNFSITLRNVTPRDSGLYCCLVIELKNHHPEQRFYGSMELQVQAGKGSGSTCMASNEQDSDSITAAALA

[4] = target: T3, His-tagged recombinant cynomolgus monkey VISTA-ECD (Met 1 to Ala 194) (cynomolgus monkey, UniProt Q9H7M9 33-194 (human entry)); test: BLI Octet, mAb on AHC sensor, cyno VISTA-ECD-His 300 nM
T3 construct: also called cyno VISTA; Cyno VISTA
T3 chain: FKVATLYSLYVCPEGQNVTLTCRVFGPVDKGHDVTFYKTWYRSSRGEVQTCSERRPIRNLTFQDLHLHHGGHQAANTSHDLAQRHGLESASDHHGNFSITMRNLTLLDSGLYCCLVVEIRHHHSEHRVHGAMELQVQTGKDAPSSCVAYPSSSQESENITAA
Procedure: (§1) Octet scouting: Antibody affinities were measured using biolayer interferometry (BLI) on the Octet Red 96 (ForteBio) system. Anti-human IgG Fc Capture (AHC) dip and read sensors (ForteBio) were used to capture each anti-VISTA antibody formatted as either an IgG1 or IgG4 and diluted to 20 μg/mL in PBS pH 7.4. AHC sensors were dipped into antibody solution for 180 s to capture each IgG on the sensor. An initial baseline was established by soaking each sensor in PBS pH 7.4 for an additional 120 s. […] Human, cynomolgus monkey, and mouse VISTA-ECD were evaluated. Studies were performed by association with VISTA-ECD for 240 s and dissociation in PBS pH 7.4 for 360 s. Data analysis was performed using Octet Data Analysis software version 9.0.0.14. In general, baseline alignment without subtraction was used for raw data processing. A Savitzky-Golay digital filter was used to remove high-frequency noise, and processed data were globally fit to a 1:1 binding model. Where binding was present, the affinity constant (KD) was calculated for each antibody-antigen pair.

[5] = target: T4, hVISTA ECD-Fc R54A, F62A, Q63A (human); test: ELISA on immobilized VISTA-Fc (5 µg/mL), antibody at 10 µg/mL
T4 construct: also called human VISTA-Fc 54A62A63A; triple VISTA-Fc mutant
Procedure: (§2) ELISA was used to measure antibody binding to wild-type and mutant VISTA essentially as described above. VISTA-Fc (5 μg/mL) was immobilized on Maxisorb 96-well ELISA plates and reacted with each antibody diluted to 10 μg/mL in a standard ELISA format. Binding data were reported as absorbance at 450 nm.

[6] = target: T5, his-tagged human VISTA-ECD (human, UniProt Q9H7M9 33-194); test: BLI sandwich binning; VISTA-ECD-His held by capture Ab VSTB-174 (competitor)
T5 construct: also called hu.VISTA; VISTA protein (Human recombinant, produced in HEK 293 cells, SinoBiologics); not shown: His tag

[7] = target: T6, RFQ-VISTA-ECD-Fc (human); test: ELISA, 10 ug/mL antibody on plate-bound mutant VISTA-Fc
T6 construct: also called hVISTA ECD-Fc R54A, F62A, Q63A; human VISTA-Fc 54A62A63A
Procedure: as §2

[8] = target: T5, his-tagged human VISTA-ECD; test: BLI sandwich binning; VISTA-ECD-His held by capture Ab 465.1 (competitor)
Procedure: (§3) Octet binning studies: Epitope mapping was performed by BLI on the Octet system. AHC sensors were used to capture anti-VISTA antibody (20 μg/mL) over 100 s. Unbound sites on the sensor were blocked with a saturating amount (50 μg/mL) of pooled purified human IgG for 180 s. Antigen (his-tagged human VISTA-ECD at 100 nM) was bound to immobilized antibody for 180 s, after which the sensor was interrogated for the ability of a paired antibody to bind the antigen in the sandwiched format. Multiple pairing arrangements were interrogated such that each antibody was used as the capture antibody in the format at least one time. Data are represented as response (nm) for the secondary antibody.

[9] = target: T5, his-tagged human VISTA-ECD; test: BLI sandwich binning; VISTA-ECD-His held by capture Ab 321.1 (competitor)
Procedure: as §3

[10] = target: T5, his-tagged human VISTA-ECD; test: BLI sandwich binning; VISTA-ECD-His held by capture Ab 173.1 (competitor)
Procedure: as §3

[11] = target: T5, his-tagged human VISTA-ECD; test: BLI sandwich binning; VISTA-ECD-His held by capture Ab 245.1 (competitor)
Procedure: as §3

[12] = target: T5, his-tagged human VISTA-ECD; test: BLI sandwich binning; VISTA-ECD-His held by capture Ab 457.1 (competitor)
Procedure: as §3

[13] = target: T5, his-tagged human VISTA-ECD; test: BLI sandwich binning; VISTA-ECD-His held by capture Ab 269.1 (competitor)
Procedure: as §3

[14] = target: T1, His-tagged recombinant human VISTA-ECD …; test: ELISA endpoint, His-VISTA on plate, mAb at 2 µg/mL
Procedure: (§4) Nickel-coated 96-well ELISA plates (Thermo Scientific) or Maxisorb 96-well polystyrene ELISA plates were coated overnight at 4° C. with 50 μL of a 0.5-1 μg/mL solution of His-tagged VISTA protein (SinoBiological, Met1-Ala194 produced in HE293 cells) in 0.1M NaHCO₃ pH 9.6. All subsequent incubations were performed at room temperature. Wells were washed 3 times with PBST (0.05% Tween 20) and blocked for 2 h with 200 μL 5% BSA in PBST. […] Each antibody dilution was incubated at 50-100 μL/well in the ELISA plate for 1 h, after which plates were washed 3 times with PBST and incubated with a 1:20,000 dilution of Biotin SP AffiniPure Donkey Anti-Human IgG (H+L) polyclonal antibody (Jackson ImmunoResearch, 50-100 μL/well) for 1 h. Wells were washed 3 times with PBST, and the plates were incubated with 50-100 μL of a 1:200 dilution of Streptavidin-HRP (R&D Systems) for 30 min. Wells were washed 3 times with PBST and developed with 100 μL 1-Step Ultra Fast TMB Substrate (Thermo Scientific) for 2 minutes. The reaction was stopped with 100 μL 2N H₂SO₄, and plate well absorbance was measured at 450 nm (Biotek ELx808).

[15] = target: T3, His-tagged recombinant cynomolgus …; test: ELISA endpoint, His-VISTA on plate, mAb at 2 µg/mL
Procedure: as §4

[16] = target: T1, His-tagged recombinant human VISTA-ECD …; test: BLI Octet, mAb on AHC sensor, hu VISTA-ECD-His 50 nM
Procedure: as §1

[17] = target: T7, rhFcRn (R&D) (human (printed as rhFcRn), UniProt P55899 24-297; P61769 21-119); test: BLI Octet K2, antibody on FAB2G sensor, rhFcRn analyte (row of 200 nM), pH 6.0, 1:1 global fit
T7 construct: Bought reagent; also called neonatal Fc receptor; FcRn ligand
Procedure: (§5) Loaded biosensors were dipped (Association Step) into serial diluted FcRn (R&D systems) at 800, 200, 50 and 0 nanomolar concentrations for 240 seconds. Associated biosensors were dipped into phosphate assay buffer (PAB; 100 mM Sodium Phosphate, 150 mM NaCl, 0.05% Tween-20; pH 6.0) solution for 360 seconds (Dissociation Step). All steps including baseline, association and dissociation were performed in PAB at a pH of 6.0 to replicate the intracellular biology of the FcRn-Fc activity. A 1:1 Global curve fitting analysis was performed to determine kₐ, kdis, and KD across all concentrations of the FcRn analyte. The biphasic curve of dissociation was analyzed for the first 10 seconds only. Data analysis was performed using Octet Data Analysis software version 12.0.2.59. A Savitzky-Golay digital filter was used to remove high-frequency noise.

[18] = target: T7, rhFcRn (R&D); test: BLI Octet K2, antibody on FAB2G sensor, rhFcRn analyte (row of 50 nM), pH 6.0, 1:1 global fit
Procedure: as §5

[19] = target: T7, rhFcRn (R&D); test: BLI Octet K2, antibody on FAB2G sensor, rhFcRn analyte (row of 800 nM), pH 6.0, 1:1 global fit
Procedure: as §5

B1: Antibody No. 269.1 (antibody, human IgG1, kappa)
heavy: not shown
light: EIVLTQSPDFQSVTPKEKVTITCRASQSIGSSLHWYQQKPDQSPKLLIKYASQSISGVPSRFSGSGSGTDFTLTINSLEAEDAAAYYCHQSSSLPQTFGQGTKVEIKRTVAAPSVFIFPPSDEQLKSGTASVVCLLNNFYPREAKVQWKVDNALQSGNSQESVTEQDSKDSTYSLSSTLTLSKADYEKHKVYACEVTHQGLSSPVTKSFNRGEC
notes: Human IgG1, kappa
With B1 the EC50 [1] was 0.475 µg/mL, the Kd [2] was < 0.001 nM and the “endpoint absorbance (450 nm)” value [3] was 0.079. The Response [4] was 0.434.

B2: Antibody No. 269.1 (antibody, human IgG1, kappa)
light: EIVLTQSPDFQSVTPKEKVTITCRASQSIGSSLHWYQQKPDQSPKLLIKYASQSISGVPSRFSGSGSGTDFTLTINSLEAEDAAAYYCHQSSSLPQTFGQGTKVEIKRTVAAPSVFIFPPSDEQLKSGTASVVCLLNNFYPREAKVQWKVDNALQSGNSQESVTEQDSKDSTYSLSSTLTLSKADYEKHKVYACEVTHQGLSSPVTKSFNRGEC
heavy: not shown
B2: binds [5].

B3: Antibody No. 269.1 (antibody, human IgG1, kappa)
heavy: not shown
light: EIVLTQSPDFQSVTPKEKVTITCRASQSIGSSLHWYQQKPDQSPKLLIKYASQSISGVPSRFSGSGSGTDFTLTINSLEAEDAAAYYCHQSSSLPQTFGQGTKVEIKRTVAAPSVFIFPPSDEQLKSGTASVVCLLNNFYPREAKVQWKVDNALQSGNSQESVTEQDSKDSTYSLSSTLTLSKADYEKHKVYACEVTHQGLSSPVTKSFNRGEC
notes: human IgG1
With B3 the “BLI response of secondary antibody” value [6] was 0.0261 nm, the “ELISA Abs 450 nm” value [7] was 1.65 Abs 450 nm and the “BLI response of secondary antibody” value [8] was 0.0505 nm. For the same binder, the “BLI response of secondary antibody” value [9] was 0.0542 nm, the “BLI response of secondary antibody” value [10] was 0.0651 nm and the “BLI response of secondary antibody” value [11] was 0.0319 nm. The “BLI response of secondary antibody” value [12] was 0.0507 nm and the “BLI response of secondary antibody” value [13] was 0.066 nm.

B4: Antibody No. 833.1 (antibody, human IgG1, kappa)
heavy: not shown
light: EIVLTQSPDFQSVTPKEKVTITCRASQSIGSSLHWYQQKPDQSPKLLIKYASQSISGVPSRFSGSGSGTDFTLTINSLEAEDAAAYYCHQSSSLPQTFGQGTKVEIKRTVAAPSVFIFPPSDEQLKSGTASVVCLLNNFYPREAKVQWKVDNALQSGNSQESVTEQDSKDSTYSLSSTLTLSKADYEKHKVYACEVTHQGLSSPVTKSFNRGEC
notes: human IgG1; also called Ab No. 833.1
For B4, the “ELISA Abs 450 nm” value [7] was 1.56 Abs 450 nm.

B5: Antibody No. 833.1 (antibody, human IgG1, kappa)
heavy: not shown
light: EIVLTQSPDFQSVTPKEKVTITCRASQSIGSSLHWYQQKPDQSPKLLIKYASQSISGVPSRFSGSGSGTDFTLTINSLEAEDAAAYYCHQSSSLPQTFGQGTKVEIKRTVAAPSVFIFPPSDEQLKSGTASVVCLLNNFYPREAKVQWKVDNALQSGNSQESVTEQDSKDSTYSLSSTLTLSKADYEKHKVYACEVTHQGLSSPVTKSFNRGEC
notes: Human IgG1, kappa; also called Ab No. 833.1
For B5, the EC50 [1] was 0.074 µg/mL and 0.5 nM, the “endpoint absorbance (450 nm)” value [14] was 2.02 and the “endpoint absorbance (450 nm)” value [15] was 1.89. The Response [16] was 0.334.

B6: Antibody No. 457.1 (antibody, human IgG1, kappa)
heavy: not shown
light: EIVLTQSPATLSLSPGERATLSCGASQSVSSNYLAWYQQKPGLAPRLLIYGASSRATGVPDRFSGSGSGTDFTLTISRLEPEDFAVYYCQQYGYSYTFGQGTKLEIKRTVAAPSVFIFPPSDEQLKSGTASVVCLLNNFYPREAKVQWKVDNALQSGNSQESVTEQDSKDSTYSLSSTLTLSKADYEKHKVYACEVTHQGLSSPVTKSFNRGEC
notes: Human IgG1, kappa
With B6 the EC50 [1] was 0.394 µg/mL, the “endpoint absorbance (450 nm)” value [3] was 0.082 and the “endpoint absorbance (450 nm)” value [14] was 2.04. For the same binder, the “endpoint absorbance (450 nm)” value [15] was 2 and the Response [4] was 0.456.

B7: Antibody No. 457.1 (antibody, human IgG1, kappa)
light: EIVLTQSPATLSLSPGERATLSCGASQSVSSNYLAWYQQKPGLAPRLLIYGASSRATGVPDRFSGSGSGTDFTLTISRLEPEDFAVYYCQQYGYSYTFGQGTKLEIKRTVAAPSVFIFPPSDEQLKSGTASVVCLLNNFYPREAKVQWKVDNALQSGNSQESVTEQDSKDSTYSLSSTLTLSKADYEKHKVYACEVTHQGLSSPVTKSFNRGEC
heavy: not shown
B7: binds [5].

B8: Antibody No. 457.1 (antibody, human IgG1, kappa)
heavy: not shown
light: EIVLTQSPATLSLSPGERATLSCGASQSVSSNYLAWYQQKPGLAPRLLIYGASSRATGVPDRFSGSGSGTDFTLTISRLEPEDFAVYYCQQYGYSYTFGQGTKLEIKRTVAAPSVFIFPPSDEQLKSGTASVVCLLNNFYPREAKVQWKVDNALQSGNSQESVTEQDSKDSTYSLSSTLTLSKADYEKHKVYACEVTHQGLSSPVTKSFNRGEC
notes: human IgG1
B8 was tested, and the “BLI response of secondary antibody” value [6] was 0.0285 nm, the “ELISA Abs 450 nm” value [7] was 1.6 Abs 450 nm and the “BLI response of secondary antibody” value [8] was 0.044 nm. For the same binder, the “BLI response of secondary antibody” value [9] was 0.0481 nm, the “BLI response of secondary antibody” value [10] was 0.0675 nm and the “BLI response of secondary antibody” value [11] was 0.0427 nm. For the same binder, the “BLI response of secondary antibody” value [12] was 0.0481 nm and the “BLI response of secondary antibody” value [13] was 0.0173 nm.

B9: Antibody No. 150.1 (antibody, human IgG1, kappa)
heavy: QVQLQESGPGLVKPSETLSLTCTVSGGSISSYYWSWIRQPPGKGLEWIGYIYYSGSTNYNPSLKSRVTISVDTSKSQFSLKLSSVTAADTAVYYCARDIPAFAFDIWGQGTMVIVSSASTKGPSVFPLAPSSKSTSGGTAALGCLVKDYFPEPVTVSWNSGALTSGVHTFPAVLQSSGLYSLSSVVTVPSSSLGTQTYICNVNHKPSNTKVDKKVEPKSCDKTHTCPPCPAPELLGGPSVFLFPPKPKDTLYITREPEVTCVVVDVSHEDPEVKFNWYVDGVEVHNAKTKPREEQYNSTYRVVSVLTVLHQDWLNGKEYKCKVSNKALPAPIEKTISKAKGQPREPQVYTLPPSRDELTKNQVSLTCLVKGFYPSDIAVEWESNGQPENNYKTTPPVLDSDGSFFLYSKLTVDKSRWQQGNVFSCSVMHEALHNHYTQKSLSLSPGK
light: not shown
notes: Human IgG1 with the YTE mutations (M252Y, S254T, T256E, EU numbering), kappa light chain; It is left out here; copies: 2 + 2
Work on B9 yielded a Kd [17] of 84.1 nM, a koff [17] of 0.0192 s⁻¹ and a kon [17] of 228000 M⁻¹ s⁻¹. For the same binder, the Kd [18] was 84.1 nM, the koff [18] was 0.0192 s⁻¹ and the kon [18] was 228000 M⁻¹ s⁻¹. It also gave a Kd [19] of 84.1 nM, a koff [19] of 0.0192 s⁻¹ and a kon [19] of 228000 M⁻¹ s⁻¹.
